Where two headings read alike, the source gives them in different places.
B1: FhuA ΔC/Δ4L protein nanopore (engineered Escherichia coli ferric hydroxamate uptake component A lacking the cork domain and loops L3, L4, L5 and L11) (other)
chain: LKEVQFKAGTDSLFQTGFDFSDSLDDDGVYSYRLTGLARSANAQQKGSEEQRYAIAPAFTWRPDDKTNFTFLSYFQNEPETGNSEGSTYSRNEKMVGYSFDHEFNDTFTVRQNLRFAENKTSQNSVYGYGVNSEGSYLARKYVVDDEKLQNFSVDTQLQSKFATGDIDHTLLTGVDFMRMRNDINAWFGYNSEGSGPYRILNKQKQTGVYVQDQAQWDKVLVTLGGRYDWADQESLNRVAGTTDKRDDKQFTWRGGVNYLFDNGVTPYFSYSESFEPSSQVGKDGNIFAPSKGKQYEVGVKYVPEDRPIVVTGAVYNLTKTNNLMADPEGSFFSVEGGEIRARGVEIEAKAALSASVNVVGSYTYTDAEYTTDTTYKGNTPAQVPKHMASLWADYTFFDGPLSGLTLGTGGRYTGSSYGDPANSFKVGSYTVVDALVRYDLARVGMAGSNVALHVNNSEGSQVVATATFRF
B2: pb2(35)-Ba (barnase fused to the first 35 amino acids of the N-terminal region of pre-cytochrome b2) (other)
chain: MLKYKPLLKISKNCEAAILRASKTRLNTIRAYGSTAQVINTFDGVADYLQTYHKLPDNYITKSEAQALGWVASKGNLADVAPGKSIGGDIFSNREGKLPGKSGRTWREADINYTSGFRNSDRILYSSDWLIYKTTDHYQTFTKIR
notes: range 1-35;domain: folded ribonuclease barnase (Ba), 110-residue; also called pb2(35)-Ba/35

Tests used:
[1] = target: B1; assay: single-channel recording at a higher applied voltage (+100 mV)
[2] = target: B1; assay: single-channel recording at a higher applied voltage (+120 mV)
[3] = target: B2
[4] = target: T1, HIV-1 nucleocapsid protein (NCp7) (HIV-1, UniProt P04591 378-432); assay: single-channel electrical recording, planar lipid bilayer, analyte added trans, 1 M KCl, 10 mM potassium phosphate, pH 7.4
T1 construct: domain: nucleocapsid protein (NCp7), 55 amino acids; also called NCp7/55

[5] = target: B2; assay: as above

Binder	partition time at +100 mV [1]	partition time at +120 mV [2]	kon [3]	koff [4]	kon [4]	kon [5]
pb2(65)-Ba (barnase fused to the first 65 amino acids of the N-terminal region of pre-cytochrome b2) (other, range 1-65;domain: folded ribonuclease barnase (Ba), 110-residue) MLKYKPLLKISKNCEAAILRASKTRLNTIRAYGSTVPKSKSFEQDSRKRTQSWTALRVGAILAATAQVINTFDGVADYLQTYHKLPDNYITKSEAQALGWVASKGNLADVAPGKSIGGDIFSNREGKLPGKSGRTWREADINYTSGFRNSDRILYSSDWLIYKTTDHYQTFTKIR	~4 ms	~12 ms				
B1			110000 M⁻¹ s⁻¹	9000 s⁻¹	2e+06 M⁻¹ s⁻¹	180000 M⁻¹ s⁻¹
pb2(95)-Ba (barnase fused to the first 95 amino acids of the N-terminal region of pre-cytochrome b2) (other, range 1-95;domain: folded ribonuclease barnase (Ba), 110-residue) MLKYKPLLKISKNCEAAILRASKTRLNTIRAYGSTVPKSKSFEQDSRKRTQSWTALRVGAILAATSSVAYLNWHNGQIDNEPKLDMNKQKISPAEAQVINTFDGVADYLQTYHKLPDNYITKSEAQALGWVASKGNLADVAPGKSIGGDIFSNREGKLPGKSGRTWREADINYTSGFRNSDRILYSSDWLIYKTTDHYQTFTKIR	~4 ms	~12 ms				
B2	~4 ms	~12 ms				

— US20120003694A1 (SYRACUSE UNIVERSITY, published 2012)
